From patent publication US10555972 (INNOPEUTICS, dated 2020)

Target: T1, Nuclear receptor-related factor 1 (Nurr1) (mouse, UniProt Q06219 1-598)
T1 construct: Endogenous transcription factor in mouse ventral midbrain lysates (IP) or frozen tissue sections (PLA); not a recombinant construct; also called NR4A2
Assay: reciprocal co-immunoprecipitation and Western blot, midbrain lysates of 10-week-old mice
Method: Interaction between Nurr1 and Foxa2 (in mouse VM tissues at 10 weeks of age) was assessed by an IP. Tissues were lysed in IP lysis buffer (Thermo Scientific, Waltham, Mass.) supplemented with protease inhibitors. Lysates were incubated with an anti-Nurr1 antibody (1:1,000, mouse, R&D Systems) or an anti-Foxa2 antibody (1:1,000, goat, Santa Cruz Biotechnology) at 4° C. for 18-24 hours. The mixtures were shaken with magnetic beads (Life Technologies) at room temperature for 1-2 hours. After washing, immunoprecipitated proteins were eluted in a sample buffer and subjected to a Western blot analysis using an anti-Foxa2 antibody (1:1,000, goat, Cell Signaling Technology) or an anti-Nurr1 antibody (1:500, mouse, R&D Systems).
Close physical interaction of these two proteins was confirmed by an in situ proximity ligation assay (PLA), which allows visualization of protein-protein binding by red fluorescence (554 nm) emanating from two proteins in close proximity (FIG. 2E).

T1 sequence (Q06219 whole entry): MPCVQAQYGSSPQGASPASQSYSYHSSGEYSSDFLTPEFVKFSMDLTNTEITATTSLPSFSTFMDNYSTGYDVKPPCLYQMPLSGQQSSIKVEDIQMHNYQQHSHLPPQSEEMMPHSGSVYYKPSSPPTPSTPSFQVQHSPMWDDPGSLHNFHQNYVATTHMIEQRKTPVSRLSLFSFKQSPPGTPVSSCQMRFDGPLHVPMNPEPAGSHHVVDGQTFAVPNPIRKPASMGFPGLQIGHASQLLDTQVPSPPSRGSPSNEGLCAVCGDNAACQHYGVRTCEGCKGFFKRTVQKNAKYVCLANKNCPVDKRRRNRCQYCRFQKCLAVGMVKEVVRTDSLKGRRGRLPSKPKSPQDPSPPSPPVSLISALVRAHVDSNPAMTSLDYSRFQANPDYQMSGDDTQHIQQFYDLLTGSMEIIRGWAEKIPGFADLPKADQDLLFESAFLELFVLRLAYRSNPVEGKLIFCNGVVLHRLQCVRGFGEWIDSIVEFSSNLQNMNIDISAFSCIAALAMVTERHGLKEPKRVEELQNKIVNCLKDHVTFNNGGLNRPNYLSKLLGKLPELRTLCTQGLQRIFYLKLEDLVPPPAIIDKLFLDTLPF

binding result: binds
B1: forkhead box protein A2 (Foxa2) (other, mouse, UniProt P35583 1-459, looked up)
chain: MLGAVKMEGHEPSDWSSYYAEPEGYSSVSNMNAGLGMNGMNTYMSMSAAAMGGGSGNMSAGSMNMSSYVGAGMSPSLAGMSPGAGAMAGMSGSAGAAGVAGMGPHLSPSLSPLGGQAAGAMGGLAPYANMNSMSPMYGQAGLSRARDPKTYRRSYTHAKPPYSYISLITMAIQQSPNKMLTLSEIYQWIMDLFPFYRQNQQRWQNSIRHSLSFNDCFLKVPRSPDKPGKGSFWTLHPDSGNMFENGCYLRRQKRFKCEKQLALKEAAGAASSGGKKTAPGSQASQAQLGEAAGSASETPAGTESPHSSASPCQEHKRGGLSELKGAPASALSPPEPAPSPGQQQQAAAHLLGPPHHPGLPPEAHLKPEHHYAFNHPFSINNLMSSEQQHHHSHHHHQPHKMDLKAYEQVMHYPGGYGSPMPGSLAMGPVTNKAGLDASPLAADTSYYQGVYSRPIMNSS
notes: Endogenous transcription factor in mouse ventral midbrain lysates (IP) or frozen tissue sections (PLA); not a recombinant construct
